Data taken from article PMC3018788 (The EMBO Journal, 2010).

B1: GST-TNRC6B-SD (domain or fragment, human, UniProt Q9UPQ9-1 1361-1723, looked up)
chain: SSNASWPPEFQPGVPWKGIQNIDPESDPYVTPGSVLGGTATSPIVDTDHQLLRDNTTGSNSSLNTSLPSPGAWPYSASDNSFTNVHSTSAKFPDYKSTWSPDPIGHNPTHLSNKMWKNHISSRNTTPLPRPPPGLTNPKPSSPWSSTAPRSVRGWGTQDSRLASASTWSDGGSVRPSYWLVLHNLTPQIDGSTLRTICMQHGPLLTFHLNLTQGTALIRYSTKQEAAKAQTALHMCVLGNTTILAEFATDDEVSRFLAQAQPPTPAATPSAPAAGWQSLETGQNQSDPVGPALNLFGGSTGLGQWSSSAGGSSGADLAGASLWGPPNYSSSLWGVPTVEDPHRMGSPAPLLPGDLLGGGSDSI
B2: GST-GW182-SD (domain or fragment, D. melanogaster, UniProt Q8SY33 937-1384, looked up)
chain: NENKDWSVAQPTSAATAYTDLVQEFEPGKPWKGSQIKSIEDDPSITPGSVARSPLSINSTPKDADIFANTGKNSPTDLPPLSLSSSTWSFNPNQNYPSHSWSDNSQQCTATSELWTSPLNKSSSRGPPPGLTANSNKSANSNASTPTTITGGANGWLQPRSGGVQTTNTNWTGGNTTWGSSWLLLKNLTAQIDGPTLRTLCMQHGPLVSFHPYLNQGIALCKYTTREEANKAQMALNNCVLANTTIFAESPSENEVQSIMQHLPQTPSSTSSSGTSGGNVGGVGTSANNANSGSAACLSGNNSGNGNGSASGAGSGNNGNSSCNNSAAGGGSSSNNTITTVANSNLVGSSGSVSNSSGVTANSSTVSVVSCTASGNSINGAGTANSSGSKSSANNLASGQSSASNLTNSTNSTWRQTSQNQALQSQSRPSGREADFDYISLVYSIVDD

How the values were obtained:
[1] = target: recombinant MBP-tagged HsPABPC1 (human, UniProt P11940 1-636); test: pull-down
[2] = target: recombinant MBP-tagged DmPABPC1 (D. melanogaster, UniProt P21187 1-634); test: pull-down
Sequence of recombinant MBP-tagged DmPABPC1 (P21187 whole entry): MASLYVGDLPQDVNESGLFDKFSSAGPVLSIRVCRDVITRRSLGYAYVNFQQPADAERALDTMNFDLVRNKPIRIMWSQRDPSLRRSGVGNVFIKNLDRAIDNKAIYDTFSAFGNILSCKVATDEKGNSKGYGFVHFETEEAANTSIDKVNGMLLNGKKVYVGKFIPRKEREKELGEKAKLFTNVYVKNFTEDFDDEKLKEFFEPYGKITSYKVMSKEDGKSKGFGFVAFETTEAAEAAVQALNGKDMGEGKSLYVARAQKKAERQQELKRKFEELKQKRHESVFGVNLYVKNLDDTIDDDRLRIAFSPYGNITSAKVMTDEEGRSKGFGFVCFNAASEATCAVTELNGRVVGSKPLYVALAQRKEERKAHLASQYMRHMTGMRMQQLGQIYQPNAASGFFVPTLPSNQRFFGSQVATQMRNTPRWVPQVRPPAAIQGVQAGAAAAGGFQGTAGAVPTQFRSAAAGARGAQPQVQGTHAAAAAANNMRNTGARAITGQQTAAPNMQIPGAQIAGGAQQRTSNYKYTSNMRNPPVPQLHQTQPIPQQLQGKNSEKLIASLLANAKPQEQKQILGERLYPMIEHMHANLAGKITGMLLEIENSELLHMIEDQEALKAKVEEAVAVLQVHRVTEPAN

Sequence of recombinant MBP-tagged HsPABPC1 (P11940 whole entry): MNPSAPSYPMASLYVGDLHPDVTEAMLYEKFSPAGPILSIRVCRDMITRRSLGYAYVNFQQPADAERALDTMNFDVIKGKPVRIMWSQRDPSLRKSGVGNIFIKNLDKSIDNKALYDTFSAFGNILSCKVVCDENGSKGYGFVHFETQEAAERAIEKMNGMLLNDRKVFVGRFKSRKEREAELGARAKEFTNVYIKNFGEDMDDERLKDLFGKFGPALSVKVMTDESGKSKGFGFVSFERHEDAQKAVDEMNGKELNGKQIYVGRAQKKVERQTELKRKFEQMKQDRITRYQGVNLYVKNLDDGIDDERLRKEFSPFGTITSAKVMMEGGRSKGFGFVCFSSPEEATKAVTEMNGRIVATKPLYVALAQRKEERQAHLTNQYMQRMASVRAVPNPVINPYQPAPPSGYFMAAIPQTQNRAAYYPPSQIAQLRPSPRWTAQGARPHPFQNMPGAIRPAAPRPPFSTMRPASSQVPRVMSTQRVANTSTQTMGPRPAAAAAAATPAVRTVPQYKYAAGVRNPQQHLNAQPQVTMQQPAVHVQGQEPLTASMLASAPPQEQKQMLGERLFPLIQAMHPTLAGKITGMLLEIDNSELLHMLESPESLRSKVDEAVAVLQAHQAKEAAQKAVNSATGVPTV

| binding result [1] | binding result [2] | Binder |
| --- | --- | --- |
| binds |  | B1 |
|  | binds | B2 |
